From article PMC4349606, “Solution structure and biophysical characterization of the multifaceted signalling effector protein growth arrest specific-1” (BMC Biochemistry, 2015)

Legend:
[1] = target: RET (Homo sapiens) (UniProt P07949); settings: cited from earlier work
[2] = target: T1, ectodomain of RET protein (ecRET; R&D Systems, catalog no. 1168-CR-050/CF) (UniProt P07949 29-635); experiment: SPR; Biacore; ecRET amine-coupled to a CM5 chip at 4000 RU; GAS1 series 2-32 uM injected at 20 ul/min for 2 min; 10 mM Hepes pH 7.4, 150 mM NaCl, 1 mM CaCl2, 0.01% Triton X-100; Kd from equilibrium responses (Req), two independent experiments; settings: both partners purified
T1 construct: Rearranged during transformation (RET) receptor tyrosine kinase, ectodomain; also called RET receptor; extracellular part of RET; source: bought: R&D Systems (catalog no. 1168-CR-050/CF)
T1 sequence (P07949 29-635): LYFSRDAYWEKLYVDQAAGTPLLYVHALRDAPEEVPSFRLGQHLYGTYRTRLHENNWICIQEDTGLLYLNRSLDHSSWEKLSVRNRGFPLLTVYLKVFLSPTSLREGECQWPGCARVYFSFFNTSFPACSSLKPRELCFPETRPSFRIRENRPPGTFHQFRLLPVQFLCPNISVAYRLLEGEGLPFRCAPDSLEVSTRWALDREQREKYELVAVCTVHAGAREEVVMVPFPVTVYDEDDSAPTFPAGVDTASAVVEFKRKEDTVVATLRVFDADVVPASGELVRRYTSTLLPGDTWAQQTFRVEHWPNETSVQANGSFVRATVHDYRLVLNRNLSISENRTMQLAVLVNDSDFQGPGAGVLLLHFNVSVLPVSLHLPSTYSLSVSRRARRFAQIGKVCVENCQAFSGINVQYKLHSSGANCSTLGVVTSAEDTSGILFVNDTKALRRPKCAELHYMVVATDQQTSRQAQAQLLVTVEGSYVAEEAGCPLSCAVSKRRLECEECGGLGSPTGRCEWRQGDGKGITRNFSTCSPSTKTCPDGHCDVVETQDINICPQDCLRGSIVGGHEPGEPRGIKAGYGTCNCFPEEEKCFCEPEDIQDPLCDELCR

Sequence of GFRα1-GDNF (P56159 25-429): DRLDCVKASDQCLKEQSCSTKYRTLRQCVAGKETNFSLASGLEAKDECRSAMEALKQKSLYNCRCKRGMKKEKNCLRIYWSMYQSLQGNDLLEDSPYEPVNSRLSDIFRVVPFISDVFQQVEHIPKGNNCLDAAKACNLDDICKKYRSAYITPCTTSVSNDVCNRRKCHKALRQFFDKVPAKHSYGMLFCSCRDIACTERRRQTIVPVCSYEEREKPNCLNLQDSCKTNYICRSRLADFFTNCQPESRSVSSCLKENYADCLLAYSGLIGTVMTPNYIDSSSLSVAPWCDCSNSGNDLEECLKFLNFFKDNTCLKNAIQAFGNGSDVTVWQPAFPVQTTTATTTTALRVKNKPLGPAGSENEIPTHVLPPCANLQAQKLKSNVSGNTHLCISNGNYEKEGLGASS
Sequence of GFRα1-GDNF (P39905 76-211, further chain): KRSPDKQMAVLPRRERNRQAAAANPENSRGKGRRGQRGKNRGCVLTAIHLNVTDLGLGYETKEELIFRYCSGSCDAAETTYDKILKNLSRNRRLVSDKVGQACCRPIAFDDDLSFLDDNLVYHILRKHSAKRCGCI
Sequence of RET (Homo sapiens) (P07949 29-635): as the sequence (P07949 29-635) above

Row | Molecule | Kd [1] [µM] | Kd [2] [µM]
1 | GFRα1-GDNF (from UniProt P56159) | 0.0002 | –
2 | human growth arrest specific-1 (GAS1), soluble form without the GPI-anchor, amino acids 39-317 (domain or fragment, UniProt P54826 39-317, looked up, glycosylated: approximately one N-glycan added in the insect cells (N-glycosylation site predicted at Asn117), secreted with the honey bee mellitin signal of the vector pK509.3; after thrombin cleavage Gly-Ser of the site probably remains at the N-terminus (surmise); Theoretical mass without glycan printed as 29.0 kDa; also called recombinant human GAS1; not shown: FLAG, N-terminal, cleaved; His6, N-terminal, cleaved) GLAHGRRLICWQALLQCQGEPECSYAYNQYAEACAPVLAQHGGGDAPGAAAAAFPASAASFSSRWRCPSHCISALIQLNHTRRGPALEDCDCAQDENCKSTKRAIEPCLPRTSGGGAGGPGAGGVMGCTEARRRCDRDSRCNLALSRYLTYCGKVFNGLRCTDECRTVIEDMLAMPKAALLNDCVCDGLERPICESVKENMARLCFGAELGNGPGSSGSDGGLDDYYDEDYDDEQRTGGAGGEQPLDDDDGVPHPPRPGSGAAASGGRGDLPYGPGRRS | – | 12.2
